This note sets out measurements from the Immune Epitope Database (IEDB).

Among the targets are HLA-A*03:01; HLA-A*31:01; HLA-A*33:01; HLA-A*68:01; HLA-A*11:01; HLA-A*02:01.
Holding throughout (assay): IEDB peptide-MHC binding, purified MHC/competitive/radioactivity; filed as Kd, often an IC50 or EC50 that approximates it; ≥ and ≤ were set here for values at or beyond the usual limits of such assays
Another test deals with HLA-B*07:02. The conditions noted are these: source organism: Plasmodium falciparum 3D7.
Another test has as its target HLA-B*35:01. The conditions noted are these: source organism: Plasmodium falciparum 3D7.
The next test addresses HLA-B*51:01. The conditions noted are these: source organism: Plasmodium falciparum 3D7.
In the next test the target is HLA-B*53:01. The conditions noted are these: source organism: Plasmodium falciparum 3D7.
In a further test the target is HLA-B*54:01. The conditions noted are these: source organism: Plasmodium falciparum 3D7.
The next test has as its target HLA-A*02:02. As to conditions: source organism: Plasmodium falciparum.
For another test, the target named is HLA-A*02:03. As to conditions: source organism: Plasmodium falciparum.
The next test has as its target HLA-A*02:06. As to conditions: source organism: Plasmodium falciparum.
The target of another test is HLA-A*68:02. As to conditions: source organism: Plasmodium falciparum.
Where [1] appears, read: source organism: Plasmodium falciparum 3D7.
The mark [2] stands for this setting: source organism: Plasmodium falciparum.

Consider ALLACAGLAY, for which the dissociation constant Kd in the test with HLA-A*03:01 (setting [1]) is 355 nM; in the test with HLA-A*31:01 (setting [1]) it was 5460 nM; with HLA-A*33:01 (setting [1]), 5090 nM; with HLA-A*68:01 (setting [1]), at least 10000 nM.

Take FILVNLLIFH: the Kd with HLA-A*03:01 (setting [2]) was 733 nM; in the test with HLA-A*11:01 (setting [2]) it was 1330 nM; in the test with HLA-A*31:01 (setting [2]) it was 1960 nM; with HLA-A*33:01 (setting [2]) it was 397 nM.

Turning to FLIFFDLFLV, the equilibrium dissociation constant (Kd) with HLA-A*02:01 (setting [1]) is 12 nM.

With FLKENKLNK, the Kd in the test with HLA-A*03:01 (setting [2]) was 145 nM; with HLA-A*11:01 (setting [2]) it was 3750 nM; in the test with HLA-A*31:01 (setting [2]), at least 10000 nM; with HLA-A*33:01 (setting [2]), 2640 nM; with HLA-A*68:01 (setting [2]), 444 nM.

As to GLIMVLSFL, the Kd with HLA-A*02:01 (setting [2]) worked out at 22 nM.

Consider GTGSGVSSK, for which the Kd with HLA-A*03:01 (setting [2]) is 126 nM; with HLA-A*11:01 (setting [2]) it was 40 nM; with HLA-A*31:01 (setting [2]) it was at least 10000 nM; with HLA-A*33:01 (setting [2]), at least 10000 nM; with HLA-A*68:01 (setting [2]), 3480 nM.

Regarding GTGSGVSSKK, the equilibrium dissociation constant (Kd) with HLA-A*03:01 (setting [2]) is 1100 nM; with HLA-A*11:01 (setting [2]), 353 nM; with HLA-A*31:01 (setting [2]), at least 10000 nM; in the test with HLA-A*33:01 (setting [2]) it was at least 10000 nM; in the test with HLA-A*68:01 (setting [2]) it was at least 10000 nM.

For GVSENIFLK, the dissociation constant (Kd) with HLA-A*03:01 (setting [2]) was 151 nM; in the test with HLA-A*11:01 (setting [2]) it was 5 nM; with HLA-A*31:01 (setting [2]) it was 2250 nM; with HLA-A*33:01 (setting [2]) it was 8290 nM; with HLA-A*68:01 (setting [2]), 10 nM.

Take HPSDGKCNL: the Kd with HLA-B*07:02 was 275 nM; with HLA-B*35:01, at least 10000 nM; with HLA-B*51:01, at least 10000 nM; in the test with HLA-B*53:01, 3320 nM; with HLA-B*54:01, at least 10000 nM.

As to HVLSHNSYEK, the dissociation constant Kd in the test with HLA-A*03:01 (setting [2]) was 407 nM; in the test with HLA-A*11:01 (setting [2]), 200 nM; in the test with HLA-A*31:01 (setting [2]), at least 10000 nM; in the test with HLA-A*33:01 (setting [2]) it was at least 10000 nM.

Consider IIRLHSDASK, for which the Kd was 324 nM with HLA-A*03:01 (setting [1]); at least 10000 nM with HLA-A*11:01 (setting [1]); at least 10000 nM with HLA-A*31:01 (setting [1]); at least 10000 nM with HLA-A*33:01 (setting [1]); at least 10000 nM with HLA-A*68:01 (setting [1]).

Take ILSVSSFLFV: the Kd with HLA-A*02:02 came to 3580 nM; in the test with HLA-A*02:03, 19 nM; with HLA-A*02:06, 587 nM; with HLA-A*68:02, 2100 nM.

For KILSVFFLA, the dissociation constant (Kd) with HLA-A*02:06 came out at 8 nM; in the test with HLA-A*03:01 (setting [2]), 18 nM; in the test with HLA-A*11:01 (setting [2]) it was 3.2 nM; in the test with HLA-A*31:01 (setting [2]) it was 7830 nM; with HLA-A*33:01 (setting [2]), 5920 nM; with HLA-A*68:01 (setting [2]), 8890 nM.

For KSLYDEHIK, the Kd with HLA-A*03:01 (setting [2]) is at least 10000 nM; with HLA-A*11:01 (setting [2]), 231 nM; with HLA-A*31:01 (setting [2]), at least 10000 nM; with HLA-A*33:01 (setting [2]), at least 10000 nM; with HLA-A*68:01 (setting [2]) it was at least 10000 nM.

On to KSLYDEHIKK, for which the Kd in the test with HLA-A*03:01 (setting [2]) was 1000 nM; with HLA-A*11:01 (setting [2]), 29 nM; with HLA-A*31:01 (setting [2]), at least 10000 nM; with HLA-A*33:01 (setting [2]), at least 10000 nM; in the test with HLA-A*68:01 (setting [2]), at least 10000 nM.

LLACAGLAY: the Kd in the test with HLA-A*31:01 (setting [1]) is at least 10000 nM; in the test with HLA-A*33:01 (setting [1]), 6590 nM; in the test with HLA-A*68:01 (setting [1]) it was 2500 nM.

For RINEEKHEK, the equilibrium dissociation constant (Kd) was 786 nM in the test with HLA-A*03:01 (setting [2]); 40 nM with HLA-A*11:01 (setting [2]); 486 nM with HLA-A*31:01 (setting [2]); at least 10000 nM in the test with HLA-A*33:01 (setting [2]); at least 10000 nM in the test with HLA-A*68:01 (setting [2]).

With RLHSDASKNK, the dissociation constant (Kd) was 256 nM with HLA-A*03:01 (setting [1]); 600 nM with HLA-A*11:01 (setting [1]); at least 10000 nM in the test with HLA-A*31:01 (setting [1]); at least 10000 nM in the test with HLA-A*33:01 (setting [1]); at least 10000 nM with HLA-A*68:01 (setting [1]).

In the case of SLLSTNLPY, the Kd was 1150 nM with HLA-A*03:01 (setting [1]); 353 nM with HLA-A*11:01 (setting [1]); at least 10000 nM with HLA-A*31:01 (setting [1]); at least 10000 nM with HLA-A*33:01 (setting [1]); at least 10000 nM with HLA-A*68:01 (setting [1]).

As for SLYDEHIKK, the Kd with HLA-A*03:01 (setting [2]) is 28 nM; in the test with HLA-A*11:01 (setting [2]), 8.6 nM; in the test with HLA-A*31:01 (setting [2]) it was at least 10000 nM; in the test with HLA-A*33:01 (setting [2]), at least 10000 nM; with HLA-A*68:01 (setting [2]) it was 615 nM.

Consider TPYAGEPAPF, for which the figures for the equilibrium dissociation constant (Kd) with HLA-B*51:01, in the test with HLA-B*53:01 and with HLA-B*54:01 were 15 nM, 158 nM and at least 10000 nM, respectively.

VLLGGVGLVL: the equilibrium dissociation constant (Kd) with HLA-A*02:02 is at least 10000 nM.

Regarding VLSHNSYEK, the Kd was 79 nM in the test with HLA-A*03:01 (setting [2]); 19 nM in the test with HLA-A*11:01 (setting [2]); at least 10000 nM in the test with HLA-A*31:01 (setting [2]); at least 10000 nM in the test with HLA-A*33:01 (setting [2]); 2860 nM in the test with HLA-A*68:01 (setting [2]).

Consider VLYNTEKGR, for which the Kd with HLA-A*03:01 (setting [2]) stood at 282 nM; with HLA-A*11:01 (setting [2]), 3160 nM; with HLA-A*31:01 (setting [2]), 8570 nM; with HLA-A*68:01 (setting [2]), 1230 nM.

Take VTCGNGIQVR: the Kd with HLA-A*03:01 (setting [2]) came out at 6880 nM; with HLA-A*11:01 (setting [2]), 11 nM; with HLA-A*31:01 (setting [2]), 15 nM; in the test with HLA-A*68:01 (setting [2]) it was 444 nM.
